{"source": "paper PMC9098846", "about": "“Molecular insights into biogenesis of glycosylphosphatidylinositol anchor proteins” (Nature Communications, 2022)", "binders": {"B1": {"name": "PIGK C92A (enzyme)", "chain": "SHIEDQAEQFFRSGHTNNWAVLVCTSRFWFNYRHVANTLSVYRSVKRLGIPDSHIVLMLADDMAANPRNPKPATVFSHKNMELNVYGDDVEVDYRSYEVTVENFLRVLTGRIPPSTPRSKRLLSDDRSNILIYMTGHGGNGFLKFQDSEEITNIELADAFEQMWQKRRYNELLFIIDTCQGASMYERFYSPNIMALASSQVGEDSLSHQPDPAIGVHLMDRYTFYVLEFLEEINPASQTNMNDLFQVCPKSLCVSTPGHRTDLFQRDPKNVLITDFFGSVRKVEITTETIKLQQDSEIMESSYKEDQMDEKLMEPLKYAEQLPVAQIIHQKPKLKDWHPPGGFILGLWALIIMVFFKTYGIKHMKFIF"}}, "target": "T1, PIGT, subunit of the human GPI transamidase (GPI-T) (human) (UniProt Q969N2)", "T1 sequence (chain, disulfide bond from C182 to PIGK C92)": "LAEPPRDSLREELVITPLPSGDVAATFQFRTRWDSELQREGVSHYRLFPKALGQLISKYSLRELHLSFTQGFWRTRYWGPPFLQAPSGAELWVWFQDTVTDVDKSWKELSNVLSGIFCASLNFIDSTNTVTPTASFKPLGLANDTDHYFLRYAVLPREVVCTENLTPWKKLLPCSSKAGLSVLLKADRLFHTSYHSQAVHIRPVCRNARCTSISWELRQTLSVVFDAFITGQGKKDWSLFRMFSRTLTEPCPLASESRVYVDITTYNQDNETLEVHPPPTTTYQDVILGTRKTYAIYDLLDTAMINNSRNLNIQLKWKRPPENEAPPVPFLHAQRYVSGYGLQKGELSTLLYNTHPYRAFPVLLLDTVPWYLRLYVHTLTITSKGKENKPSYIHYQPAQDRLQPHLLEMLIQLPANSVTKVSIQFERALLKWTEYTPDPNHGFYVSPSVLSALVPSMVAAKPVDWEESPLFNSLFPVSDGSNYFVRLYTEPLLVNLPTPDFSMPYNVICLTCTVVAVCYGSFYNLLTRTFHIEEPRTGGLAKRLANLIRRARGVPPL"}
{"binder": "B1", "values": [{"measurement": "apparent GPI-T activity: surface staining of the reporter GPI-AP CD59 on PIGK knockout cells by flow cytometry, compared to the wild-type PIGK (% of wild-type)", "result": 61}]}
